Here are results for four molecules from CN1652821A (dated 2005).

For orientation: Kd means the equilibrium constant for the complex coming apart. The low end stands for a tighter complex, the high end for a looser complex.

The target of one assay is T1, LNCaP细胞上表达的PSMA (human, UniProt Q04609 1-750).
T1 construct: whole, on cells; Endogenous PSMA of LNCaP cells; also used for the LNCaP membrane-fraction ELISA; also called PSMA on LNCaP cells; LNCaP细胞膜
The assay is described as follows: Scatchard analysis, 111In-DOTA-labelled antibody binding to a fixed number of LNCaP cells.

Assay [1] deals with T2, 细菌表达的含有PSMA氨基酸134-437的融合蛋白 (human, UniProt Q04609 134-437).
T2 construct: Bacterially expressed fusion protein
T2 sequence (Q04609 134-437): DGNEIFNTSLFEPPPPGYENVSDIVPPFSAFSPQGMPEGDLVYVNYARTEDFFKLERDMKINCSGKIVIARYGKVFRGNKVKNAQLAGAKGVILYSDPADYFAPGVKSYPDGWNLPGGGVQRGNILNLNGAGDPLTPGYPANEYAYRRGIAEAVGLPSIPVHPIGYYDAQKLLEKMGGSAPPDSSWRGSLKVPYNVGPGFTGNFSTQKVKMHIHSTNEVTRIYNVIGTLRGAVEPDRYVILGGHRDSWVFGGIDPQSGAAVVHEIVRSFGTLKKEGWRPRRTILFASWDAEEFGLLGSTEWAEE
The assay is described as follows: solid-phase ELISA on bacterially expressed PSMA fragment fusion proteins. Background: An ELISA detects its analyte on a solid surface through an enzyme-linked reagent.

In a further assay the target is T3, 细菌表达的含有PSMA氨基酸1-173的融合蛋白 (human, UniProt Q04609 1-173).
T3 construct: Bacterially expressed fusion protein
T3 sequence (Q04609 1-173): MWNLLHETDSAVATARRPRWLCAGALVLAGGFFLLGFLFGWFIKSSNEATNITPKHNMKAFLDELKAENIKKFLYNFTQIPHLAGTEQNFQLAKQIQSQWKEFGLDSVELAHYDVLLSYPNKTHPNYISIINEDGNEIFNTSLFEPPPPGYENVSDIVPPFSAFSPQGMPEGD
Described as above.

Assay [2] concerns the target T4, 细菌表达的含有PSMA氨基酸438-750的融合蛋白 (human, UniProt Q04609 438-750).
T4 construct: range 438-750; Bacterially expressed fusion protein; also called PSMA 438-750 fusion protein
Described as above.

Substitutions are numbered along the chain they refer to.

T4 sequence (Q04609 438-750): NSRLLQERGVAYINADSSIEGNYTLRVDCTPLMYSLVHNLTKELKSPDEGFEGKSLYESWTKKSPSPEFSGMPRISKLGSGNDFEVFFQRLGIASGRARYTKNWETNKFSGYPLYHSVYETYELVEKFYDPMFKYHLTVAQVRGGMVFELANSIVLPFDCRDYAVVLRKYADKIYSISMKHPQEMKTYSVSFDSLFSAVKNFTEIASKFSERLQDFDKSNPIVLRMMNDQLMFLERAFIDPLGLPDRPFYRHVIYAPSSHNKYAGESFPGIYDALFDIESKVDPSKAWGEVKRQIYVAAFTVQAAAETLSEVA
T1 sequence (Q04609 whole entry): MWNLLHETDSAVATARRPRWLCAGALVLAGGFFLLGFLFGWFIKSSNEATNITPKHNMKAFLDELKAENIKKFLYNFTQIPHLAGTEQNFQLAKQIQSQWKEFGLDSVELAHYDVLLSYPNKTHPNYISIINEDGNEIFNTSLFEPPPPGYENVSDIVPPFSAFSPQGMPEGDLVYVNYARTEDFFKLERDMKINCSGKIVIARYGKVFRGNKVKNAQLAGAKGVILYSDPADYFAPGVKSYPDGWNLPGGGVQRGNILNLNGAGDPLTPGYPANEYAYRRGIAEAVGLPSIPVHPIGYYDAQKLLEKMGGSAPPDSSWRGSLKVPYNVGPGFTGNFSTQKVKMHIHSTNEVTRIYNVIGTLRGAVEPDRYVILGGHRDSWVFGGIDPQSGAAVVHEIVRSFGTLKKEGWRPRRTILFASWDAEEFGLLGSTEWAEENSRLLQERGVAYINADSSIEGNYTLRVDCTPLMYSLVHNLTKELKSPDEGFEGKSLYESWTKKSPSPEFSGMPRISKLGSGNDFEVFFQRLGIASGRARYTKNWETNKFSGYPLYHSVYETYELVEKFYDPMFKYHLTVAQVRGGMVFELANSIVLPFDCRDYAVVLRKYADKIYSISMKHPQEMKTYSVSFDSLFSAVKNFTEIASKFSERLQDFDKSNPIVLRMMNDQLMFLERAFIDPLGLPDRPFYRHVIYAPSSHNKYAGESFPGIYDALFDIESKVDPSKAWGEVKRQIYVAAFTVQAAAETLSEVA

B1: DOTA-标记的4A3 (antibody, IgG1, V domains shown)
VH: EVQLVQSGAEVKKPGESLKISCKGSGYSFTSYWIGWARQMPGKGLEWMGIIYPGDSDTRYSPSFQGQVTISADKSISTAYLQWSSLKASDTAMYYCSAANSSHWYFDLWGRGTLVTVSS
VL: EIVLTQSPATLSLSPGERATLSCRASQSVSSYLAWFQQKPGQAPRLLIYDASNRATGIPARFSGSGSGTDFTLTISSLEPEDFAVYYCQQRSNWLMYTFGQGTKLEIK
modifications: DOTA coupled through one carboxyl group to protein amino groups, sites not stated; 111In chelated in the Scatchard study
notes: 4A3 IgG1 kappa conjugated with DOTA; also called DOTA-4A3; 111 In-DOTA-标记抗体 4A3
B1 had a Kd in the assay with LNCaP细胞上表达的PSMA of 0.5 nM.

B2: 人单克隆抗体(HuMAb)4A3 (antibody, V domains shown)
VH: B1 VH
VL: B1 VL
notes: Human IgG1 kappa (γ1,κ) from a hybridoma of HuMAb mouse #17018
On to B2, for which the binding result (in assay [1]; in the assay with 细菌表达的含有PSMA氨基酸1-173的融合蛋白; in assay [2]) was “no binding” throughout.

B3: 人单克隆抗体(HuMAb)7F12 (antibody, V domains shown)
VH: B1 VH with E1A, Y32F, S97A, A98T, H103F, Y105N
VL: B1 VL with F36Y
notes: as for B2
Take B3: the binding result (in assay [1]; with 细菌表达的含有PSMA氨基酸1-173的融合蛋白; in assay [2]) was “no binding” each time.

B4: DOTA-标记的7F12 (antibody, IgG1, V domains shown)
VH: B1 VH with E1A, Y32F, S97A, A98T, H103F, Y105N
VL: B1 VL with F36Y
modifications: DOTA coupled through one carboxyl group to protein amino groups, sites not stated; 111In chelated in the Scatchard study
notes: 7F12 IgG1 kappa conjugated with DOTA; also called DOTA-7F12; 111 In-DOTA-标记抗体 7F12
In the assay with LNCaP细胞上表达的PSMA, B4 displayed a Kd of 0.5 nM.
